Source: article PMC9898670, “A solution structure analysis reveals a bent collagen triple helix in the complement activation recognition molecule mannan-binding lectin” (The Journal of Biological Chemistry, 2022)
Non-standard residues stand in square brackets, D forms with d. Hyp = O=C(O)[C@@H]1C[C@@H](O)CN1

B1: MBL-N (MBL native) collagen peptide, Ac-(POG)4-EPGQGLRG-(POG)3-NH2 (peptide)
peptide: Ac-P[Hyp]GP[Hyp]GP[Hyp]GP[Hyp]GEPGQGLRGP[Hyp]GP[Hyp]GP[Hyp]G-NH2
SMILES: CC(=O)N1CCC[C@H]1C(=O)N1C[C@H](O)C[C@H]1C(=O)NCC(=O)N1CCC[C@H]1C(=O)N1C[C@H](O)C[C@H]1C(=O)NCC(=O)N1CCC[C@H]1C(=O)N1C[C@H](O)C[C@H]1C(=O)NCC(=O)N1CCC[C@H]1C(=O)N1C[C@H](O)C[C@H]1C(=O)NCC(=O)N[C@@H](CCC(=O)O)C(=O)N1CCC[C@H]1C(=O)NCC(=O)N[C@@H](CCC(N)=O)C(=O)NCC(=O)N[C@@H](CC(C)C)C(=O)N[C@@H](CCCNC(=N)N)C(=O)NCC(=O)N1CCC[C@H]1C(=O)N1C[C@H](O)C[C@H]1C(=O)NCC(=O)N1CCC[C@H]1C(=O)N1C[C@H](O)C[C@H]1C(=O)NCC(=O)N1CCC[C@H]1C(=O)N1C[C@H](O)C[C@H]1C(=O)NCC(N)=O
notes: (POG)4 written out; (POG)3 written out; Homotrimeric collagen triple helix
B2: T3-785 collagen peptide, Ac-(POG)3-ITGARGLAGPOG-(POG)3-NH2 (peptide)
peptide: Ac-P[Hyp]GP[Hyp]GP[Hyp]GITGARGLAGP[Hyp]GP[Hyp]GP[Hyp]GP[Hyp]G-NH2
SMILES: CC[C@H](C)[C@H](NC(=O)CNC(=O)[C@@H]1C[C@@H](O)CN1C(=O)[C@@H]1CCCN1C(=O)CNC(=O)[C@@H]1C[C@@H](O)CN1C(=O)[C@@H]1CCCN1C(=O)CNC(=O)[C@@H]1C[C@@H](O)CN1C(=O)[C@@H]1CCCN1C(C)=O)C(=O)N[C@H](C(=O)NCC(=O)N[C@@H](C)C(=O)N[C@@H](CCCNC(=N)N)C(=O)NCC(=O)N[C@@H](CC(C)C)C(=O)N[C@@H](C)C(=O)NCC(=O)N1CCC[C@H]1C(=O)N1C[C@H](O)C[C@H]1C(=O)NCC(=O)N1CCC[C@H]1C(=O)N1C[C@H](O)C[C@H]1C(=O)NCC(=O)N1CCC[C@H]1C(=O)N1C[C@H](O)C[C@H]1C(=O)NCC(=O)N1CCC[C@H]1C(=O)N1C[C@H](O)C[C@H]1C(=O)NCC(N)=O)[C@@H](C)O
notes: (POG)3 written out; Homotrimeric collagen triple helix; also called Type III T3-785 peptide
B3: MBL-E (MBL EOG) collagen peptide, Ac-(POG)5-EOGQGLRG-(POG)3-NH2 (peptide)
peptide: Ac-P[Hyp]GP[Hyp]GP[Hyp]GP[Hyp]GP[Hyp]GE[Hyp]GQGLRGP[Hyp]GP[Hyp]GP[Hyp]G-NH2
SMILES: CC(=O)N1CCC[C@H]1C(=O)N1C[C@H](O)C[C@H]1C(=O)NCC(=O)N1CCC[C@H]1C(=O)N1C[C@H](O)C[C@H]1C(=O)NCC(=O)N1CCC[C@H]1C(=O)N1C[C@H](O)C[C@H]1C(=O)NCC(=O)N1CCC[C@H]1C(=O)N1C[C@H](O)C[C@H]1C(=O)NCC(=O)N1CCC[C@H]1C(=O)N1C[C@H](O)C[C@H]1C(=O)NCC(=O)N[C@@H](CCC(=O)O)C(=O)N1C[C@H](O)C[C@H]1C(=O)NCC(=O)N[C@@H](CCC(N)=O)C(=O)NCC(=O)N[C@@H](CC(C)C)C(=O)N[C@@H](CCCNC(=N)N)C(=O)NCC(=O)N1CCC[C@H]1C(=O)N1C[C@H](O)C[C@H]1C(=O)NCC(=O)N1CCC[C@H]1C(=O)N1C[C@H](O)C[C@H]1C(=O)NCC(=O)N1CCC[C@H]1C(=O)N1C[C@H](O)C[C@H]1C(=O)NCC(N)=O
notes: (POG)5 written out; (POG)3 written out; Homotrimeric collagen triple helix; form used in AUC, SAXS and SANS; The CD and DSC runs used a form with one POG triplet fewer
B4: MBL-12 (12 triplets) collagen peptide, Ac-(POG)5-EPGQGLRG-(POG)5-NH2 (peptide)
peptide: Ac-P[Hyp]GP[Hyp]GP[Hyp]GP[Hyp]GP[Hyp]GEPGQGLRGP[Hyp]GP[Hyp]GP[Hyp]GP[Hyp]GP[Hyp]G-NH2
SMILES: CC(=O)N1CCC[C@H]1C(=O)N1C[C@H](O)C[C@H]1C(=O)NCC(=O)N1CCC[C@H]1C(=O)N1C[C@H](O)C[C@H]1C(=O)NCC(=O)N1CCC[C@H]1C(=O)N1C[C@H](O)C[C@H]1C(=O)NCC(=O)N1CCC[C@H]1C(=O)N1C[C@H](O)C[C@H]1C(=O)NCC(=O)N1CCC[C@H]1C(=O)N1C[C@H](O)C[C@H]1C(=O)NCC(=O)N[C@@H](CCC(=O)O)C(=O)N1CCC[C@H]1C(=O)NCC(=O)N[C@@H](CCC(N)=O)C(=O)NCC(=O)N[C@@H](CC(C)C)C(=O)N[C@@H](CCCNC(=N)N)C(=O)NCC(=O)N1CCC[C@H]1C(=O)N1C[C@H](O)C[C@H]1C(=O)NCC(=O)N1CCC[C@H]1C(=O)N1C[C@H](O)C[C@H]1C(=O)NCC(=O)N1CCC[C@H]1C(=O)N1C[C@H](O)C[C@H]1C(=O)NCC(=O)N1CCC[C@H]1C(=O)N1C[C@H](O)C[C@H]1C(=O)NCC(=O)N1CCC[C@H]1C(=O)N1C[C@H](O)C[C@H]1C(=O)NCC(N)=O
notes: (POG)5 written out; Homotrimeric collagen triple helix

Experiments:
[1] = biological target: the molecule itself; test: circular dichroism; spectra 190-260 nm and melting curves at 226 nm from 0 to 70 °C, average heating rate 0.1 °C/min
[2] = biological target: the molecule itself; test: AUC; sedimentation velocity, 50,000 rpm, 20 °C, 137 mM PBS pH 7.4 or 20 mM L-histidine pH 6.0 in H2O (10 peptides, 0.2-2.5 mg/ml) and 20 mM L-histidine in 2H2O (six peptides, 0.75-4 mg/ml); c(s) analysis with SEDFIT; peptides equilibrated for at least 48 h at room temperature to assemble into triple helices

| Protein | binding result [1] | binding result [2] |
| --- | --- | --- |
| B1 | binds |  |
| B2 |  | binds |
| B3 |  | binds |
| B4 | binds |  |
